In patent publication US5886163, “HIV-1 antigens, antibody compositions related thereto, and therapeutic and prophylactic uses thereof” (Progenics Pharmaceuticals, Inc., dated 1999):

Target: human CD4 on the membrane surface of DG44 #3 cells (human, UniProt P01730)
Test: FACS on DG44 #3 cells (CHO cells transfected with human CD4 cDNA)

B1: HIV-1 gp120LAI (ligand)
chain: not shown
**Q.** Does B1 bind?
**A.** binds
